In US20050261170A1 (published 2005):
Primed or numbered codes have the meaning given here. NTA′ = nitrilotriacetic acid residue (Asp with its nitrogen carboxymethylated)

Molecular target: T1, onconase bearing a six His tag (Rana pipiens, UniProt P22069 1-104)
T1 construct: also called His-tagged onconase
T1 sequence: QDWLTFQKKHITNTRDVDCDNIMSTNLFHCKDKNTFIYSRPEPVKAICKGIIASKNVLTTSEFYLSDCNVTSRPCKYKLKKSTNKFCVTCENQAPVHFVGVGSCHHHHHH
Test: SPR (Biacore C1 chip): IMP 267 immobilised by a disulfide and loaded with NiCl2, flow cell without nickel as control, His-tagged onconase at 0-50 nM as analyte
Description: IMP 267 was bound to a Biacore® C1 sensor chip first by dissolving 0.0040 g of IMP 267 in 690 μL of 0.01 M, pH 4.3 formate buffer. The chip was activated for coupling of the peptide via a disulfide linkage using pyridyldithioelthylamine (“PDEA”) as described by Biacore. The Biacore® C1 chip was activated with a 10 μL aliquot of the recommended 1-ethyl-3-(3-dimethylaminoprolyl) carbodiimide (“EDC”)/N-hydroxysuccinimide (“NHS”) mixture at 5 μL/min in flow cells 1 & 2. The recommended PDEA solution, 35 μL (0.0047 g PDEA in 0.1 M, pH 8.5 Borate buffer) was added to the chip at flow cells 1 & 2. The peptide, 35 μL was added to flow cells 1 & 2 and the chip was quenched with an aliquot of cysteine (made from 0.0026 g cys, 0.0268 g NaCl, and 433 μL 0.1 M, pH 4.3 formate buffer) into cells 1 & 2. The chip was activated by adding nickel to only one flow cell using the other flow cell, without nickel, as the control. The activation was done at 40 μL/min using 100 μL of a 500 μM NiCl₂ solution in NTA buffer. A kinetics experiment was performed using the following concentrations of onconase bearing a six His tag (50 nM, 25 nM, 10 nM, 5 nM, 1 nM and 0 nM). […] The affinity of His-tagged onconase is accessed similarly.

B1: IMP 267 (peptide)
peptide: Ac-CK(NTA′)K(NTA′)K(NTA′)-NH2
modifications: also: Cys thiol coupled to Biacore C1 chip by disulfide (PDEA), loaded with Ni2+
notes: Synthetic tri-NTA peptide; also called peptide that includes nitrilotriacetic acid residues
Q: B1 was tested. Which Kd did it give?
A: The Kd was 1.15 nM.
